Results from PMC4839565, “Evolution of Telomeres in Schizosaccharomyces pombe and Its Possible Relationship to the Diversification of Telomere Binding Proteins”.

T1: Teb1p (6HN-Teb1) (Schizosaccharomyces pombe, UniProt Q10274 2-390)
T1 sequence: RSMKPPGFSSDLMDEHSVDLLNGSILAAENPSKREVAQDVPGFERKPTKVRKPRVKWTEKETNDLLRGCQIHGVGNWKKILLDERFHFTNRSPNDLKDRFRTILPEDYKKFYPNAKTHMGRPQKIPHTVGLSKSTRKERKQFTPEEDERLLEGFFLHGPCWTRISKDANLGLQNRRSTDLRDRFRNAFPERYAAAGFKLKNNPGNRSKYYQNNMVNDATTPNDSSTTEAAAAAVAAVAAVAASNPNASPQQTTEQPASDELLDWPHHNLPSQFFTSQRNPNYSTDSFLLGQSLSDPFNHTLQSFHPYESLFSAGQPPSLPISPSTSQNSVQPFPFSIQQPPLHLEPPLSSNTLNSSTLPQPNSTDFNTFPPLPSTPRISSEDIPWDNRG

T2: Taz1p (6HN-Taz1) (Schizosaccharomyces pombe, UniProt P79005 2-663)
T2 sequence: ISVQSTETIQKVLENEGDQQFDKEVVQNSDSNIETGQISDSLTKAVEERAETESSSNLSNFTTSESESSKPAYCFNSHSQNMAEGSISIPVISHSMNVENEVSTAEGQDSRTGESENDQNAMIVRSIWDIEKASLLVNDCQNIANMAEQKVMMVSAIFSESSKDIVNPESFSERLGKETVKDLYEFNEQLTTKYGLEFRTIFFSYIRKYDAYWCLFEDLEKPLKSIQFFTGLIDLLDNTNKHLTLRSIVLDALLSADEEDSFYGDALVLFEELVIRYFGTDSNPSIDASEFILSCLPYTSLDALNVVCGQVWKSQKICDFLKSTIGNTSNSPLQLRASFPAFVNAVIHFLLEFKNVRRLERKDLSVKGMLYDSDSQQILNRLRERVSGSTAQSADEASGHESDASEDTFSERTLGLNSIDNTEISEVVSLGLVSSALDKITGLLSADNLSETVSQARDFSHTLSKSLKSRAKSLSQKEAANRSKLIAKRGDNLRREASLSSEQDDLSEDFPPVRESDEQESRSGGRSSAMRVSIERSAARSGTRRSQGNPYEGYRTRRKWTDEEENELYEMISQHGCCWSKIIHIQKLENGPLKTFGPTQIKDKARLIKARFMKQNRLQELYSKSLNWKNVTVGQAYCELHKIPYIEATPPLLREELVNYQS

B1: HisBox (dsDNA)
DNA 1: AGGGTTAGGGTTGTGAT
DNA 2: ATCACAACCCTAACCCT
B2: HisBoxMut (dsDNA)
DNA 1: AGGGTGTGAGTTGTGAT
DNA 2: ATCACAACTCACACCCT
B3: SpTEL (dsDNA)
DNA 1: TTACAGGGGGTTACAGGG
DNA 2: CCCTGTAACCCCCTGTAA
B4: HsTEL (dsDNA)
DNA 1: GTTAGGGTTAGGGTTAG
DNA 2: CTAACCCTAACCCTAAC
B5: HisBoxFlankPart (dsDNA)
DNA 1: AGGGTTAGGGTTACAGC
DNA 2: GCTGTAACCCTAACCCT

Experiments:
Teb1p (6HN-Teb1) [1] = target: T1, Teb1p (6HN-Teb1); test: fluorescence anisotropy; HNE, no DTT, 25 C; HNE: 20 mM HEPES-NaOH pH 7.5, 1 mM EDTA, 100 mM NaCl (Teb1); HNED = HNE + 0.1 mM DTT (Taz1). FA: 2 nM DNA, 25 C (Teb1/SpTEL 37 C). EMSA: 15 nM DNA, 0.05-4.5 uM; conditions: protein: recombinant; tags: N-terminal 6HN; C-terminal GST removed with PreScission protease (residual site residues); EMSA: 5'-32P on strand A; blunt
Taz1p (6HN-Taz1) = target: T2, Taz1p (6HN-Taz1); test: fluorescence anisotropy; HNED, 0.1 mM DTT, 25 C; HNE: 20 mM HEPES-NaOH pH 7.5, 1 mM EDTA, 100 mM NaCl (Teb1); HNED = HNE + 0.1 mM DTT (Taz1). FA: 2 nM DNA, 25 C (Teb1/SpTEL 37 C). EMSA: 15 nM DNA, 0.05-4.5 uM; conditions: protein: recombinant; tags: N-terminal 6HN; chain copies: 2; EMSA: 5'-32P on strand A; blunt
Teb1p (6HN-Teb1) [2] = target: T1, Teb1p (6HN-Teb1); test: EMSA; no DTT; HNE: 20 mM HEPES-NaOH pH 7.5, 1 mM EDTA, 100 mM NaCl (Teb1); HNED = HNE + 0.1 mM DTT (Taz1). FA: 2 nM DNA, 25 C (Teb1/SpTEL 37 C). EMSA: 15 nM DNA, 0.05-4.5 uM; conditions: protein: recombinant; tags: N-terminal 6HN; C-terminal GST removed with PreScission protease (residual site residues); label: 5'-32P on strand A; blunt
Teb1p (6HN-Teb1) [3] = target: T1, Teb1p (6HN-Teb1); test: fluorescence anisotropy; HNE, no DTT, 37 C; HNE: 20 mM HEPES-NaOH pH 7.5, 1 mM EDTA, 100 mM NaCl (Teb1); HNED = HNE + 0.1 mM DTT (Taz1). FA: 2 nM DNA, 25 C (Teb1/SpTEL 37 C). EMSA: 15 nM DNA, 0.05-4.5 uM; conditions: protein: recombinant; tags: N-terminal 6HN; C-terminal GST removed with PreScission protease (residual site residues); EMSA: 5'-32P on strand A; blunt
Teb1p (6HN-Teb1) [4] = target: T1, Teb1p (6HN-Teb1); test: EMSA; no DTT; almost complete restoration; HNE: 20 mM HEPES-NaOH pH 7.5, 1 mM EDTA, 100 mM NaCl (Teb1); HNED = HNE + 0.1 mM DTT (Taz1). FA: 2 nM DNA, 25 C (Teb1/SpTEL 37 C). EMSA: 15 nM DNA, 0.05-4.5 uM; conditions: protein: recombinant; tags: N-terminal 6HN; C-terminal GST removed with PreScission protease (residual site residues); label: 5'-32P on strand A; blunt

Binder | Kd (Teb1p (6HN-Teb1) [1]) [nM] | Kd (Taz1p (6HN-Taz1)) [nM] | further results
B1 | 53 ± 6 | 380 ± 50 | –
B2 | – | – | binding result (Teb1p (6HN-Teb1) [2]): no binding
B3 | – | 115 ± 9 | Kd (Teb1p (6HN-Teb1) [3]): 380 ± 30 nM
B4 | 31 ± 5 | 54 ± 5 | –
B5 | – | – | binding result (Teb1p (6HN-Teb1) [4]): binds
